The record followed here is the supplement of paper PMC12458215.

The subject of the series is HEK293T. Nature of the series: plasma membrane surface immunostaining intensity (anti-HA, deep receptor scanning) (arbitrary fluorescence units); higher = higher plasma membrane expression.

± gives the uncertainty stated by the source.

As for “MGNRSTADADGLLAGRGPAAGASAGASAGLAGQGAAALVGGVLLIGAVLAGNSLVCVSVATERALQTPTNSFIVSLAAADLLLALLVLPLFVYSEVQGGAWLLSPRLCDALMAMDVMLCTASIFNLCAISVDRFVAVAVPLRYNRQGGSRRQLLLIGATWLLSAAVAAPVLCGLNDVRGRDPAVCRLEDRDYVVYSSVCSFFLPCPLMLLLYWATFRGLQRWEVARRAKLHGRAPRRPSGPGPPSPTPPAPRLPQDPCGPDCAPPAPGLPRGPCGPDCAPAAPSLPQDPCGPDCAPPAPGLPPDPCGSNCAPPDAVRAAALPPQTPPQTRRRRRAKITGRERKAMRVLPVVVGAFLLCWTPFFVVHITQALCPACSVPPRLVSAVTWLGYVNSALNPVIYTVFNAEFRNVFRKALRACC [DRD4]”, the “plasma membrane surface immunostaining intensity” value (GPCR class: A) worked out at 602 ± 92.
On the same count and under the same terms, the result for “MRLSAGPDAGPSGNSSPWWPLATGAGNTSREAEALGEGNGPPRDVRNEELAKLEIAVLAVTFAVAVLGNSSVLLALHRTPRKTSRMHLFIRHLSLADLAVAFFQVLPQMCWDITYRFRGPDWLCRVVKHLQVFGMFASAYMLVVMTADRYIAVCHPLKTLQQPARRSRLMIAAAWVLSFVLSTPQYFVFSMIEVNNVTKARDCWATFIQPWGSRAYVTWMTGGIFVAPVVILGTCYGFICYNIWCNVRGKTASRQSKGAEQAGVAFQKGFLLAPCVSSVKSISRAKIRTVKMTFVIVTAYIVCWAPFFIIQMWSVWDPMSVWTESENPTITITALLGSLNSCCNPWIYMFFSGHLLQDCVQSFPCCQNMKEKFNKEDTDSMSRRQTFYSNNRSPTNSTGMWKDSPKSSKSIKFIPVST [AVPR1A]” reads 497 ± 41.
As to “MGKENCTTVAEFILLGLSDVPELRVCLFLLFLLIYGVTLLANLGMTALIQVSSRLHTPVYFFLSHLSFVDFCYSSIIVPKMLANIFNKDKAISFLGCMVQFYLFCTCGVTEVFLLAVMAYDRFVAICNPLLYMVTMSQKLRVELTSCCYFCGTVCSLIHSSLALRILFYRSNVINHFFCDLPPLLSLACSDVTVNETLLFLVATLNESVTIMIILTSYLLILTTILKIHSAESRHKAFSTCASHLTAITVSHGTILYIYCRPSSGNSGDVDKVATVFYTVVIPMLNPLIYSLRNKDVNKALRKVMGSKIHS [OR5L2]”, the “plasma membrane surface immunostaining intensity” value (GPCR class: A (Olfactory)) is 140 ± 35.
For “MSEEEFYLFKNISSVGPWDGPQYHIAPVWAFYLQAAFMGTVFLIGFPLNAMVLVATLRYKKLRQPLNYILVNVSFGGFLLCIFSVFPVFVASCNGYFVFGRHVCALEGFLGTVAGLVTGWSLAFLAFERYIVICKPFGNFRFSSKHALTVVLATWTIGIGVSIPPFFGWSRFIPEGLQCSCGPDWYTVGTKYRSESYTWFLFIFCFIVPLSLICFSYTQLLRALKAVAAQQQESATTQKAEREVSRMVVVMVGSFCVCYVPYAAFAMYMVNNRNHGLDLRLVTIPSFFSKSACIYNPIIYCFMNKQFQACIMKMVCGKAMTDESDTCSSQKTEVSTVSSTQVGPN [OPN1SW]”, where the note is “GPCR class: A”, the “plasma membrane surface immunostaining intensity” value came out at 2770 ± 310.
Regarding “MEDLEETLFEEFENYSYDLDYYSLESDLEEKVQLGVVHWVSLVLYCLAFVLGIPGNAIVIWFTGFKWKKTVTTLWFLNLAIADFIFLLFLPLYISYVAMNFHWPFGIWLCKANSFTAQLNMFASVFFLTVISLDHYIHLIHPVLSHRHRTLKNSLIVIIFIWLLASLIGGPALYFRDTVEFNNHTLCYNNFQKHDPDLTLIRHHVLTWVKFIIGYLFPLLTMSICYLCLIFKVKKRSILISSRHFWTILVVVVAFVVCWTPYHLFSIWELTIHHNSYSHHVMQAGIPLSTGLAFLNSCLNPILYVLISKKFQARFRSSVAEILKYTLWEVSCSGTVSEQLRNSETKNLCLLETAQ [CMKLR2]”, the “plasma membrane surface immunostaining intensity” value (GPCR class: A) worked out at 510 ± 52.
On to “MEPEKQTEISEFFLQGLSEKPEHQTLLFTMFLSTYLVTIIGNALIILAIITDSHLHTPMYFFLFNLSLVDTLLSSTTVPKMLANIQAQSRAIPFVGCLTQMYAFHLFGTMDSFLLAVMAIDRFVAIVHPQRYLVLMCSPVCGLLLGASWMITNLQSLIHTCLMAQLTFCAGSEISHFFCDLMPLLKLSGSDTHTNELVIFAFGIVVGTSPFSCILLSYIRIFWTVFKIPSTRGKWKAFSTCGLHLTVVSLSYGTIFAVYLQPTSPSSSQKDKAAALMCGVFIPMLNPFIYSIRNKDMKAALGKLIGKVAVPCPRPEQLLDVYHVPGSLLAARDTEMHPIPYPGGVQSLAGNRDME [OR1I1]”, for which, under “GPCR class: A (Olfactory)”, the “plasma membrane surface immunostaining intensity” value came to 161 ± 47.
Turning to “MEGDSYHNATTVNGTPVNHQPLERHRLWEVITIAAVTAVVSLITIVGNVLVMISFKVNSQLKTVNNYYLLSLACADLIIGIFSMNLYTTYILMGRWALGSLACDLWLALDYVASNASVMNLLVISFDRYFSITRPLTYRAKRTPKRAGIMIGLAWLISFILWAPAILCWQYLVGKRTVPLDECQIQFLSEPTITFGTAIAAFYIPVSVMTILYCRIYRETEKRTKDLADLQGSDSVTKAEKRKPAHRALFRSCLRCPRPTLAQRERNQASWSSSRRSTSTTGKPSQATGPSANWAKAEQLTTCSSYPSSEDEDKPATDPVLQVVYKSQGKESPGEEFSAEETEETFVKAETEKSDYDTPNYLLSPAAAHRPKSQKCVAYKFRLVVKADGNQETNNGCHKVKIMPCPFPVAKEPSTKGLNPNPSHQMTKRKRVVLVKERKAAQTLSAILLAFIITWTPYNIMVLVSTFCDKCVPVTLWHLGYWLCYVNSTVNPICYALCNRTFRKTFKMLLLCRWKKKKVEEKLYWQGNSKLP [CHRM5]”, the “plasma membrane surface immunostaining intensity” value (GPCR class: A) amounted to 1470 ± 190.
For “MNTSAPPAVSPNITVLAPGKGPWQVAFIGITTGLLSLATVTGNLLVLISFKVNTELKTVNNYFLLSLACADLIIGTFSMNLYTTYLLMGHWALGTLACDLWLALDYVASNASVMNLLLISFDRYFSVTRPLSYRAKRTPRRAALMIGLAWLVSFVLWAPAILFWQYLVGERTVLAGQCYIQFLSQPIITFGTAMAAFYLPVTVMCTLYWRIYRETENRARELAALQGSETPGKGGGSSSSSERSQPGAEGSPETPPGRCCRCCRAPRLLQAYSWKEEEEEDEGSMESLTSSEGEEPGSEVVIKMPMVDPEAQAPTKQPPRSSPNTVKRPTKKGRDRAGKGQKPRGKEQLAKRKTFSLVKEKKAARTLSAILLAFILTWTPYNIMVLVSTFCKDCVPETLWELGYWLCYVNSTINPMCYALCNKAFRDTFRLLLLCRWDKRRWRKIPKRPGSVHRTPSRQC [CHRM1]”, the “plasma membrane surface immunostaining intensity” value (GPCR class: A) came out at 2530 ± 130.
For “MEPAPSAGAELQPPLFANASDAYPSACPSAGANASGPPGARSASSLALAIAITALYSAVCAVGLLGNVLVMFGIVRYTKMKTATNIYIFNLALADALATSTLPFQSAKYLMETWPFGELLCKAVLSIDYYNMFTSIFTLTMMSVDRYIAVCHPVKALDFRTPAKAKLINICIWVLASGVGVPIMVMAVTRPRDGAVVCMLQFPSPSWYWDTVTKICVFLFAFVVPILIITVCYGLMLLRLRSVRLLSGSKEKDRSLRRITRMVLVVVGAFVVCWAPIHIFVIVWTLVDIDRRDPLVVAALHLCIALGYANSSLNPVLYAFLDENFKRCFRQLCRKPCGRPDPSSFSRAREATARERVTACTPSDGPGGGAAA [OPRD1]”, the “plasma membrane surface immunostaining intensity” value (GPCR class: A) worked out at 6220 ± 99.
For “MTRKNYTSLTEFVLLGLADTLELQIILFLFFLVIYTLTVLGNLGMILLIRIDSQLHTPMYFFLANLSFVDVCNSTTITPKMLADLLSEKKTISFAGCFLQMYFFISLATTECILFGLMAYDRYAAICRPLLYSLIMSRTVYLKMAAGAFAAGLLNFMVNTSHVSSLSFCDSNVIHHFFCDSPPLFKLSCSDTILKESISSILAGVNIVGTLLVILSSYSYVLFSIFSMHSGEGRHRAFSTCASHLTAIILFYATCIYTYLRPSSSYSLNQDKVASVFYTVVIPMLNPLIYSLRSKEVKKALANVISRKRTSSFL [OR5F1]”, the “plasma membrane surface immunostaining intensity” value (GPCR class: A (Olfactory)) was 192 ± 87.
Turning to “MSLFLSNLSTNDSSLWKENHNSTDLLNPPGTLNIYLFCLTCLMTFAALVGSIYSLISLLKMQNRTVVSMLVASWSVDDLMSVLSVTIFMFLQWPNEVPGYFQFLCTTSALMYLCQGLSSNLKATLLVSYNFYTMHRGVGSQTASRRSGQVLGVVLTVWAASLLLSALPLCGWGAFVRTPWGCLVDCSSSYVLFLSIVYALAFGLLVGLSVPLTHRLLCSEEPPRLHSNYQEISRGASIPGTPPTAGRVVSLSPEDAPGPSLRRSGGCSPSSDTVFGPGAPAAAGAEACRRENRGTLYGTRSFTVSVAQKRFALILALTKVVLWLPMMMHMVVQNVVGFQSLPLETFSFLLTLLATTVTPVFVLSKRWTHLPCGCIINCRQNAYAVASDGKKIKRKGFEFNLSFQKSYGIYKIAHEDYYDDDENSIFYHNLMNSECETTKDPQRDNRNIFNAIKVEISTTPSLDSSTQRGINKCTNTDITEAKQDSNNKKDAFSDKTGGDINYEETTFSEGPERRLSHEESQKPDLSDWEWCRSKSERTPRQRSGYALAIPLCAFQGTVSLHAPTGKTLSLSTYEVSAEGQKITPASKKIEVYRSKSVGHEPNSEDSSSTFVDTSVKIHLEVLEICDNEEALDTVSIISNISQSSTQVRSPSLRYSRKENRFVSCDLGETASYSLFLPTSNPDGDINISIPDTVEAHRQNSKRQHQERDGYQEEIQLLNKAYRKREEESKGS [GPR149]”, the “plasma membrane surface immunostaining intensity” value (GPCR class: A) was 1060 ± 320.
Regarding “MLNTTSVTEFLLLGVTDIQELQPFLFVVFLTIYFISVTGNGAVLMIVISDPRLHSLMYFFLGNLSYLDICYSTVTLPKMLQNFLSTHKAISFLGCISQLHFFHSLGSTESMLFAVMAFDLSVAICKPLRYTVIMNPQLCTQMAITIWVIGFFHALLHSVMTSRLNFCGSNRIHHFLCDIKPLLKLACGNTELNQWLLSTVTGTIAMGPFFLTLLSYFYIITYLFFKTRSCSMLCKALSTCASHFMVVILFYAPVLFTYIHPALESFMDQDRIVAIMYTVVTPVLNPLIYTLRNKEVKGALGRVIRRL [OR12D2]”, the “plasma membrane surface immunostaining intensity” value (GPCR class: A (Olfactory)) is 126 ± 22.
Regarding “MTEFHLQSQMPSIRLIFRRLSLGRIKPSQSPRCSTSFMVVPSFSIAEHWRRMKGANLSQGMEFELLGLTTDPQLQRLLFVVFLGMYTATLLGNLVMFLLIHVSATLHTPMYSLLKSLSFLDFCYSSTVVPQTLVNFLAKRKVISYFGCMTQMFFYAGFATSECYLIAAMAYDRYAAICNPLLYSTIMSPEVCASLIVGSYSAGFLNSLIHTGCIFSLKFCGAHVVTHFFCDGPPILSLSCVDTSLCEILLFIFAGFNLLSCTLTILISYFLILNTILKMSSAQGRFKAFSTCASHLTAICLFFGTTLFMYLRPRSSYSLTQDRTVAVIYTVVIPVLNPLMYSLRNKDVKKALIKVWGRKTME [OR5AU1]”, under “GPCR class: A (Olfactory)”, the “plasma membrane surface immunostaining intensity” value turned out to be 419 ± 110.
For the sequence “MSENGSFANCCEAGGWAVRPGWSGAGSARPSRTPRPPWVAPALSAVLIVTTAVDVVGNLLVILSVLRNRKLRNAGNLFLVSLALADLVVAFYPYPLILVAIFYDGWALGEEHCKASAFVMGLSVIGSVFNITAIAINRYCYICHSMAYHRIYRRWHTPLHICLIWLLTVVALLPNFFVGSLEYDPRIYSCTFIQTASTQYTAAVVVIHFLLPIAVVSFCYLRIWVLVLQARRKAKPESRLCLKPSDLRSFLTMFVVFVIFAICWAPLNCIGLAVAINPQEMAPQIPEGLFVTSYLLAYFNSCLNAIVYGLLNQNFRREYKRILLALWNPRHCIQDASKGSHAEGLQSPAPPIIGVQHQADAL [MTNR1B]”, where the note is “GPCR class: A”, the “plasma membrane surface immunostaining intensity” value is 280 ± 17.
With “MENVTTMNEFLLLGLTGVQELQPFFFGIFLIIYLINLIGNGSILVMVVLEPQLHSPMYFFLGNLSCLDISYSSVTLPKLLVNLVCSRRAISFLGCITQLHFFHFLGSTEAILLAIMAFDRFVAICNPLRYTVIMNPQVCILLAAAAWLISFFYALMHSVMTAHLSFCGSQKLNHFFYDVKPLLELACSDTLLNQWLLSIVTGSISMGAFFLTLLSCFYVIGFLLFKNRSCRILHKALSTCASHFMVVCLFYGPVGFTYIRPASATSMIQDRIMAIMYSAVTPVLNPLIYTLRNKEVMMALKKIFGRKLFKDWQQHH [OR12D3]”, the “plasma membrane surface immunostaining intensity” value (GPCR class: A (Olfactory)) is 148 ± 34.
